Test results: patent US9512196B2, “Short-form human MD-2 as a negative regulator of toll-like receptor 4 signaling” (Cedars-Sinai Medical Center, priority 2008, dated 2016)

Key:
TLR4 [1] = target: T1, TLR4 (Homo sapiens, UniProt O00206); assay: NF-κB luciferase reporter in HEK293 cells expressing TLR4, LPS stimulation; format: cell-based; settings: for LPS-dependent NF-κB activation conferred by soluble protein: culture supernatants added to HEK293 cells stably transfected with TLR4 and NF-κB luciferase reporter; for LPS-mediated NF-κB activation on transient expression: plasmid transfected with CD14 into HEK293 TLR4/NF-κB reporter cells, LPS 250 ng/ml 6 h
T1 construct: expressed in transfected cells; host or cells: HEK293
T1 sequence (O00206 24-839): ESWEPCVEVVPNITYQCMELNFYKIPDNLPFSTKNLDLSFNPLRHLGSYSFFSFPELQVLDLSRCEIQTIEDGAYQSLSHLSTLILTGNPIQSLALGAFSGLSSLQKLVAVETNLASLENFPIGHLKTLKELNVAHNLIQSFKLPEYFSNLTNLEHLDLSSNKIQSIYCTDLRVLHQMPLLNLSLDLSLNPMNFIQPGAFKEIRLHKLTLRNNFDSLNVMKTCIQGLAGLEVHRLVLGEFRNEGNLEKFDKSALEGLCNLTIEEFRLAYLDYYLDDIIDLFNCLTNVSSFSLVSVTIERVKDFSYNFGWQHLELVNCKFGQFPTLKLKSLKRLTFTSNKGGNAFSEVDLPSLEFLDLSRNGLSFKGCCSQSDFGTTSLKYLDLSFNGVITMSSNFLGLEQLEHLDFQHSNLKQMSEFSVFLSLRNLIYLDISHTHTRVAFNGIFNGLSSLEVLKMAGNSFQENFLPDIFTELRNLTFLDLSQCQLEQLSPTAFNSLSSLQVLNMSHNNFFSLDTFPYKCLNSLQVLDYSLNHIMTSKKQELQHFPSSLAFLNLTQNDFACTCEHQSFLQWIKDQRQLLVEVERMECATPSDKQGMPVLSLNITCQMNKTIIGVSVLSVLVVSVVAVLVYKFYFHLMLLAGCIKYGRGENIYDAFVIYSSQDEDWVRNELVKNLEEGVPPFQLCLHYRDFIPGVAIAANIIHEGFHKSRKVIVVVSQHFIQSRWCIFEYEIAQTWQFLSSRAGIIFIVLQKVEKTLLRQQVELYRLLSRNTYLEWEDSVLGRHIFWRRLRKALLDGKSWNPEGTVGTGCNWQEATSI
Experimental: (A) HEK-293 cells stably transfected with TLR4 and a NF-κB reporter gene were treated with supernatants containing either MD-2 or MD-2s as described in the examples herein. Cells were left untreated or stimulated with LPS for 24 h. Mean relative stimulation of luciferase activity±S.D. for a representative experiment, each performed in triplicate, is shown. (B) HEK-293 cells stably transfected with TLR4 and a NF-κB reporter gene were transiently transfected with plasmids encoding for either MD-2, MD-2s or CD14 as shown. 24 h later, cells were left untreated or stimulated with LPS (250 ng/ml) for 6 h. Mean relative stimulation of luciferase activity±SD for a representative experiment, each performed in triplicate, is shown. (C) and (D) Supernatants were also collected and measured for IL-8 secretion.
(A) HEK293 cells were transiently transfected with plasmids encoding TLR4 and a NF-κB reporter gene in combination with MD-2 and MD-2s as indicated. 24 h later, cells were left untreated or incubated with LPS (250 ng/ml) for 5 h. Mean relative stimulation of luciferase activity±S.D. for a representative experiment from three separate experiments, each performed in triplicate, is shown. (B) HEK-293 cells stably transfected with TLR4 and a NF-κB reporter gene were treated with supernatants containing either MD-2 and MD-2s as depicted and left untreated or incubated with LPS for 24 h. Mean relative stimulation of luciferase activity±S.D. for a representative experiment from three separate experiments, each performed in triplicate, is shown.
HEK293 cells were transiently transfected with the expression vectors noted in combination with constructs encoding the NF-κB- and IL-8-luciferase reporter gene, and either the β-galactosidase gene or the phRL-TK report gene to normalize for transfection efficiency. In all cases, total DNA concentration was kept constant by supplementation with empty vector control. Following overnight incubation, cells were stimulated for 6 hours with 50 ng/ml LPS and then lysed, and luciferase activity was measured as described previously (Ohta et al. (2004) BIOCHEM BIOPHYS RES COMMUN 323, 1103-1108). Data are shown as mean±SD of three or more independent experiments and are reported as a percentage of LPS-stimulated NF-κB and IL-8 promoter activity, or relative luciferase activity.
The requirement for MD-2s in LPS mediated NF-κB activation was assessed. It has been shown that the soluble form of wild-type MD-2 confers LPS responsiveness to cells expressing TLR4; therefore, it was investigated if soluble MD-2s was also bioactive. Culture supernatants were obtained from HEK293 cells transiently expressing control vector, MD-2, or MD-2s, and incubated with HEK293 cells stably transfected with TLR4 and an NF-κB-dependent luciferase reporter gene.
MD-2s was tested to see if it needed to be transiently expressed in TLR4 reporter cells in order to mediate NF-κB activation following LPS stimulation. HEK293 cells stably transfected with TLR4 and an NF-κB-dependent luciferase reporter gene were transiently transfected with plasmids encoding CD14 in combination with either MD-2 or MD-2s, and subsequently treated with LPS.
HEK293 cells were transiently transfected with plasmids encoding CD14, TLR4, and wild-type MD-2 in conjunction with a plasmid encoding the NF-κB-dependent luciferase reporter gene in the presence or absence of a plasmid encoding MD-2s. […] Furthermore, we assessed the inhibitory role of soluble MD-2s following LPS stimulation. HEK293 cells stably transfected with TLR4 and an NF-κB-dependent luciferase reporter gene were incubated with supernatants obtained from HEK293 cells transiently expressing a constant amount of MD-2 with increasing concentrations of MD-2s.

[2] = tested on: lung inflammation induced by LPS; assay: LPS-induced lung inflammation in mice after in vivo plasmid transfection; design: species or system mouse
Experimental: (A) MD-2s expression can be detected following in vivo transfection. RNA was isolated from lung tissue of wild-type mice at 48 h post in vivo transfection with control vector (lane 1), Myc-MD2 (lane 2) or a plasmid encoding MycMD-2s (lane 3) and reverse transcribed into cDNA. RT-PCR using human MD-2-specific primers (lanes 1-3) or murine GAPDH primers (lanes 4-6), was then performed. (B-E) Wild-type mice were transfected with control vector (EV, open bars) or a plasmid encoding MD-2s (black bars) 48 h before being challenged intratracheally with PBS or 10 μg of LPS, for 24 h. MD-2s expression reduced (B) IL-6 concentration in bronchoalveolar lavage fluid (BALF), (C) KC concentration in the lung homogenate, and (D) recruitment of polymorphonuclear leukocytes (PMN) into the lung.

TLR4 [3] = target: T1, TLR4; assay: Confocal co-localization with CFP-tagged TLR4 in HEK293 cells; format: cell-based; settings: confocal analysis, anti-Myc staining
Experimental: (A) Cells stably expressing CFP-tagged TLR4 were transiently transfected with plasmids encoding wild-type MD-2 (upper panels) or MD-2s (lower panels). 24 h later, cells were incubated with an anti-Myc antibody and cross-liked with Alexa 647-conjugated anti-mouse polyclonal secondary antibody. (B) HEK293 cells were transiently transfected with a plasmid encoding for Flag-tagged TLR4 (lane 2) and cotransfected with either a Myc-tagged MD-2 (lane 3) or a Myc-tagged MD-2s (lanes 1 and 4) expressing plasmid. Co-immunoprecipitation experiments were then performed using an anti-Flag antibody (lanes 2-4) or an IgG isotype control antibody (lane 1). Samples were fractionated by SDS-PAGE and immunoblotting with an anti-Myc antibody was performed. Experiment shown is representative of 4 separate experiments.
To address this possibility, co-localization studies to examine the cellular distribution of MD-2s with respect to TLR4 were performed. HEK293 cells stably expressing TLR4CFP were subsequently transiently transfected with a plasmid encoding either MD-2 (FIG. 4A, upper panel) or MD-2s (FIG. 4A, lower panel) and stained with an anti-Myc antibody. […] Next whether MD-2s is physically associated with TLR4 was assessed. […]

[4] = plasmid encoding MD-2s 48 h before 10 μg LPS intratracheally, 24 h, vs control vector

Row | Molecule | LPS-dependent NF-κB activation conferred by soluble protein (TLR4 [1]; LPS 24 h) | LPS-mediated NF-κB activation on transient expression (TLR4 [1]) | Percentage of GR-1+CD11b+ cells in the lung following LPS challenge ([2]; flow cytometry, control without MD-2s expression 66.7%) [%] | IL-6 concentration in bronchoalveolar lavage fluid (BALF) [2, 4] | KC concentration in the lung homogenate [2, 4] | Recruitment of polymorphonuclear leukocytes (PMN) into the lung [2, 4] | Cellular distribution with respect to TLR4 (TLR4 [3]) | Effect on LPS-induced NF-κB activation mediated by MD-2/TLR4 (TLR4 [1]; MD-2s plasmid co-transfected with CD14, TLR4, wild-type MD-2 and reporter, LPS 250 ng/ml 5 h) | Effect of soluble form on LPS-induced NF-κB activation (TLR4 [1]; supernatants with constant MD-2 and increasing MD-2s on TLR4/NF-κB reporter cells, LPS 24 h)
1 | MD-2: full-length human wild-type MD-2, co-receptor of TLR4 [reference compound] | strongly activated NF-κB | activated NF-κB | – | – | – | – | – | – | –
2 | MD-2s: alternatively spliced isoform of human MD-2 lacking exon 2, with D38G substitution; expressed and secreted protein sequences in Table 1 (protein, listed as Homo sapiens) chain 1: MLPFLFFSTLFSSIFTEAQKQYWVCNSSDASISYTYCGRDLKQLYFNLYITVNTMNLPKRKEVICRGSDDDYSFCRALKGETVNTTISFSFKGIKFSKGKYKCVVEAISGSPEEMLFCLEFVILHQPNSN chain 2: EAQKQYWVCNSSDASISYTYCGRDLKQLYFNLYITVNTMNLPKRKEVICRGSDDDYSFCRALKGETVNTTISFSFKGIKFSKGKYKCVVEAISGSPEEMLFCLEFVILHQPNSN | could not confer LPS responsiveness | unable to induce LPS-mediated NF-κB activation | 26.1 | reduced | reduced | reduced | same cellular distribution | significantly inhibited | inhibits NF-κB activation
